Results published in US20260167699A1 (Chugai, published 2026).

B1: GpH7-A5/GpH7-B3 variant S324_09D/GpL16-k0 (antibody, human IgG1, kappa)
heavy 1: not shown
heavy 2: not shown
light: DIVMTQSPLSLPVTPGEPASISCQASESLVHSNRNTYLHWYLQKPGQSPQLLIYKVSNRFSGVPDRFSGSGSGTDFTLKISRVEAEDVGVYYCSQNTHVPPTFGQGTKVEIERTVAAPSVFIFPPSDEQLKSGTASVVCLLNNFYPREAKVQWKVDNALQSGNSQESVTEQDSKDSTYSLSSTLTLSKADYEKHKVYACEVTHQGLSSPVTKSFNRGEC
notes: He Ab; copies: 1 + 1 + 2
B2: GpH7-A5/GpH7-B3 variant S324_10E/GpL16-k0 (antibody, human IgG1, kappa)
heavy 1: not shown
heavy 2: not shown
light: DIVMTQSPLSLPVTPGEPASISCQASESLVHSNRNTYLHWYLQKPGQSPQLLIYKVSNRFSGVPDRFSGSGSGTDFTLKISRVEAEDVGVYYCSQNTHVPPTFGQGTKVEIERTVAAPSVFIFPPSDEQLKSGTASVVCLLNNFYPREAKVQWKVDNALQSGNSQESVTEQDSKDSTYSLSSTLTLSKADYEKHKVYACEVTHQGLSSPVTKSFNRGEC
notes: He Ab; copies: 1 + 1 + 2
B3: GpH7-A5/GpH7-B3 variant S324_11K/GpL16-k0 (antibody, human IgG1, kappa)
heavy 1: not shown
heavy 2: not shown
light: DIVMTQSPLSLPVTPGEPASISCQASESLVHSNRNTYLHWYLQKPGQSPQLLIYKVSNRFSGVPDRFSGSGSGTDFTLKISRVEAEDVGVYYCSQNTHVPPTFGQGTKVEIERTVAAPSVFIFPPSDEQLKSGTASVVCLLNNFYPREAKVQWKVDNALQSGNSQESVTEQDSKDSTYSLSSTLTLSKADYEKHKVYACEVTHQGLSSPVTKSFNRGEC
notes: He Ab; copies: 1 + 1 + 2
B4: GpH7-A5/GpH7-B3 variant S324_12R/GpL16-k0 (antibody, human IgG1, kappa)
heavy 1: not shown
heavy 2: not shown
light: DIVMTQSPLSLPVTPGEPASISCQASESLVHSNRNTYLHWYLQKPGQSPQLLIYKVSNRFSGVPDRFSGSGSGTDFTLKISRVEAEDVGVYYCSQNTHVPPTFGQGTKVEIERTVAAPSVFIFPPSDEQLKSGTASVVCLLNNFYPREAKVQWKVDNALQSGNSQESVTEQDSKDSTYSLSSTLTLSKADYEKHKVYACEVTHQGLSSPVTKSFNRGEC
notes: He Ab; copies: 1 + 1 + 2
B5: GpH7-A5/GpH7-B3 variant S324_14T/GpL16-k0 (antibody, human IgG1, kappa)
heavy 1: not shown
heavy 2: not shown
light: DIVMTQSPLSLPVTPGEPASISCQASESLVHSNRNTYLHWYLQKPGQSPQLLIYKVSNRFSGVPDRFSGSGSGTDFTLKISRVEAEDVGVYYCSQNTHVPPTFGQGTKVEIERTVAAPSVFIFPPSDEQLKSGTASVVCLLNNFYPREAKVQWKVDNALQSGNSQESVTEQDSKDSTYSLSSTLTLSKADYEKHKVYACEVTHQGLSSPVTKSFNRGEC
notes: He Ab; copies: 1 + 1 + 2
B6: GpH7-A5/GpH7-B3 variant S324_15Y/GpL16-k0 (antibody, human IgG1, kappa)
heavy 1: not shown
heavy 2: not shown
light: DIVMTQSPLSLPVTPGEPASISCQASESLVHSNRNTYLHWYLQKPGQSPQLLIYKVSNRFSGVPDRFSGSGSGTDFTLKISRVEAEDVGVYYCSQNTHVPPTFGQGTKVEIERTVAAPSVFIFPPSDEQLKSGTASVVCLLNNFYPREAKVQWKVDNALQSGNSQESVTEQDSKDSTYSLSSTLTLSKADYEKHKVYACEVTHQGLSSPVTKSFNRGEC
notes: He Ab; copies: 1 + 1 + 2
B7: GpH7-A5/GpH7-B3 variant S324_16H/GpL16-k0 (antibody, human IgG1, kappa)
heavy 1: not shown
heavy 2: not shown
light: DIVMTQSPLSLPVTPGEPASISCQASESLVHSNRNTYLHWYLQKPGQSPQLLIYKVSNRFSGVPDRFSGSGSGTDFTLKISRVEAEDVGVYYCSQNTHVPPTFGQGTKVEIERTVAAPSVFIFPPSDEQLKSGTASVVCLLNNFYPREAKVQWKVDNALQSGNSQESVTEQDSKDSTYSLSSTLTLSKADYEKHKVYACEVTHQGLSSPVTKSFNRGEC
notes: He Ab; copies: 1 + 1 + 2
B8: GpH7-A5/GpH7-B3 variant S324_18N/GpL16-k0 (antibody, human IgG1, kappa)
heavy 1: not shown
heavy 2: not shown
light: DIVMTQSPLSLPVTPGEPASISCQASESLVHSNRNTYLHWYLQKPGQSPQLLIYKVSNRFSGVPDRFSGSGSGTDFTLKISRVEAEDVGVYYCSQNTHVPPTFGQGTKVEIERTVAAPSVFIFPPSDEQLKSGTASVVCLLNNFYPREAKVQWKVDNALQSGNSQESVTEQDSKDSTYSLSSTLTLSKADYEKHKVYACEVTHQGLSSPVTKSFNRGEC
notes: He Ab; copies: 1 + 1 + 2
B9: GpH7-A5/GpH7-B3 variant S324_19Q/GpL16-k0 (antibody, human IgG1, kappa)
heavy 1: not shown
heavy 2: not shown
light: DIVMTQSPLSLPVTPGEPASISCQASESLVHSNRNTYLHWYLQKPGQSPQLLIYKVSNRFSGVPDRFSGSGSGTDFTLKISRVEAEDVGVYYCSQNTHVPPTFGQGTKVEIERTVAAPSVFIFPPSDEQLKSGTASVVCLLNNFYPREAKVQWKVDNALQSGNSQESVTEQDSKDSTYSLSSTLTLSKADYEKHKVYACEVTHQGLSSPVTKSFNRGEC
notes: He Ab; copies: 1 + 1 + 2
B10: GpH7-A5/GpH7-B3 variant V266_02A/GpL16-k0 (antibody, human IgG1, kappa)
heavy 1: not shown
heavy 2: not shown
light: DIVMTQSPLSLPVTPGEPASISCQASESLVHSNRNTYLHWYLQKPGQSPQLLIYKVSNRFSGVPDRFSGSGSGTDFTLKISRVEAEDVGVYYCSQNTHVPPTFGQGTKVEIERTVAAPSVFIFPPSDEQLKSGTASVVCLLNNFYPREAKVQWKVDNALQSGNSQESVTEQDSKDSTYSLSSTLTLSKADYEKHKVYACEVTHQGLSSPVTKSFNRGEC
notes: He Ab; copies: 1 + 1 + 2
B11: GpH7-A5/GpH7-B3 variant V266_06M/GpL16-k0 (antibody, human IgG1, kappa)
heavy 1: not shown
heavy 2: not shown
light: DIVMTQSPLSLPVTPGEPASISCQASESLVHSNRNTYLHWYLQKPGQSPQLLIYKVSNRFSGVPDRFSGSGSGTDFTLKISRVEAEDVGVYYCSQNTHVPPTFGQGTKVEIERTVAAPSVFIFPPSDEQLKSGTASVVCLLNNFYPREAKVQWKVDNALQSGNSQESVTEQDSKDSTYSLSSTLTLSKADYEKHKVYACEVTHQGLSSPVTKSFNRGEC
notes: He Ab; copies: 1 + 1 + 2
B12: GpH7-A5/GpH7-B3 variant V266_07I/GpL16-k0 (antibody, human IgG1, kappa)
heavy 1: not shown
heavy 2: not shown
light: DIVMTQSPLSLPVTPGEPASISCQASESLVHSNRNTYLHWYLQKPGQSPQLLIYKVSNRFSGVPDRFSGSGSGTDFTLKISRVEAEDVGVYYCSQNTHVPPTFGQGTKVEIERTVAAPSVFIFPPSDEQLKSGTASVVCLLNNFYPREAKVQWKVDNALQSGNSQESVTEQDSKDSTYSLSSTLTLSKADYEKHKVYACEVTHQGLSSPVTKSFNRGEC
notes: He Ab; copies: 1 + 1 + 2
B13: GpH7-A5/GpH7-B3 variant V266_08L/GpL16-k0 (antibody, human IgG1, kappa)
heavy 1: not shown
heavy 2: not shown
light: DIVMTQSPLSLPVTPGEPASISCQASESLVHSNRNTYLHWYLQKPGQSPQLLIYKVSNRFSGVPDRFSGSGSGTDFTLKISRVEAEDVGVYYCSQNTHVPPTFGQGTKVEIERTVAAPSVFIFPPSDEQLKSGTASVVCLLNNFYPREAKVQWKVDNALQSGNSQESVTEQDSKDSTYSLSSTLTLSKADYEKHKVYACEVTHQGLSSPVTKSFNRGEC
notes: He Ab; copies: 1 + 1 + 2
B14: GpH7-A5/GpH7-B3 variant Y296_01G/GpL16-k0 (antibody, human IgG1, kappa)
heavy 1: not shown
heavy 2: not shown
light: DIVMTQSPLSLPVTPGEPASISCQASESLVHSNRNTYLHWYLQKPGQSPQLLIYKVSNRFSGVPDRFSGSGSGTDFTLKISRVEAEDVGVYYCSQNTHVPPTFGQGTKVEIERTVAAPSVFIFPPSDEQLKSGTASVVCLLNNFYPREAKVQWKVDNALQSGNSQESVTEQDSKDSTYSLSSTLTLSKADYEKHKVYACEVTHQGLSSPVTKSFNRGEC
notes: He Ab; copies: 1 + 1 + 2
B15: GpH7-A5/GpH7-B3 variant Y296_02A/GpL16-k0 (antibody, human IgG1, kappa)
heavy 1: not shown
heavy 2: not shown
light: DIVMTQSPLSLPVTPGEPASISCQASESLVHSNRNTYLHWYLQKPGQSPQLLIYKVSNRFSGVPDRFSGSGSGTDFTLKISRVEAEDVGVYYCSQNTHVPPTFGQGTKVEIERTVAAPSVFIFPPSDEQLKSGTASVVCLLNNFYPREAKVQWKVDNALQSGNSQESVTEQDSKDSTYSLSSTLTLSKADYEKHKVYACEVTHQGLSSPVTKSFNRGEC
notes: He Ab; copies: 1 + 1 + 2
B16: GpH7-A5/GpH7-B3 variant Y296_03V/GpL16-k0 (antibody, human IgG1, kappa)
heavy 1: not shown
heavy 2: not shown
light: DIVMTQSPLSLPVTPGEPASISCQASESLVHSNRNTYLHWYLQKPGQSPQLLIYKVSNRFSGVPDRFSGSGSGTDFTLKISRVEAEDVGVYYCSQNTHVPPTFGQGTKVEIERTVAAPSVFIFPPSDEQLKSGTASVVCLLNNFYPREAKVQWKVDNALQSGNSQESVTEQDSKDSTYSLSSTLTLSKADYEKHKVYACEVTHQGLSSPVTKSFNRGEC
notes: He Ab; copies: 1 + 1 + 2

biological target: T1, FcγRIIIa extracellular domain, C-terminal His tag (human, UniProt P08637 17-208); assay: SPR, binding activity relative to GpH7-A5/GpH7-B3/GpL16-k0 (=100)
T1 construct: extracellular domain; also called 3a
T1 sequence (P08637 other isoform, or with tags, fused parts or gaps): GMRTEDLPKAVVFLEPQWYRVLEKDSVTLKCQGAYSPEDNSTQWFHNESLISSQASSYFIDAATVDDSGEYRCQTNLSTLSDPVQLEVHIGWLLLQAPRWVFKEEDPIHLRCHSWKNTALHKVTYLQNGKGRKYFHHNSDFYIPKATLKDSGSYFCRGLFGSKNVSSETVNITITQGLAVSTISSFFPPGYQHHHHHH

Point of comparison: B4, “He/Con 3a” value 98.1%. Against it:
- B1 — higher, 110%
- B2 — higher, 108%
- B3 — lower, 90.2%
- B5 — higher, 112%
- B6 — higher, 110%
- B7 — higher, 113%
- B8 — higher, 103%
- B9 — lower, 96.2%
- B10 — lower, 56.8%
- B11 — lower, 84.9%
- B12 — higher, 113%
- B13 — higher, 117%
- B14 — lower, 51.3%
- B15 — lower, 66.3%
- B16 — lower, 69.1%
